Assay results taken from the nanobody polyreactivity screen of Harvey et al. (2022).

Assay: yeast display, Sf9 membrane polyspecificity reagent, FACS + sequencing; frameworks hold sequencing errors
In short: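 Galactose induction of a Saccharomyces cerevisiae BJ5465 synthetic nanobody display library ran 36–48 hours. The cells were then stained for 1 hour at 4 °C with 10% biotinylated, detergent-solubilized Sf9 membrane reagent, pulled down on streptavidin microbeads and FACS-sorted into low and high (top ~1%) gates on expression and reagent-binding fluorescence. Labels for polyreactivity follow the gate of origin.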

Row | Sequence | polyreactivity (PSR sort gate)
1 | QVQLEESGGGLVQAGASLRLICAASGFTFARNAMGWYRQAPGKERELVASITSGGSTNYADSVKGRFTISRDNAKNTVYLQMNSLKPEETAVYYCAAYQWIAPRRDYWGQGTQVTVSS | low polyreactivity
2 | QVQLVESGGGLVQAGGSLRLSCAASGSTFNAYAMGWYRQAPGKERELVAAISYTGGSTYYADSVKGRFTISRDNAKNTVYLQMNSLKPEDTAVYYCARRQARKFYYWGQGTQVTVSS | high polyreactivity
3 | QVQLQESGGGLVQAGGCLRLSCAASGTIFDPDYMGWYHQAPGKERELVASISLGRITYYADSVKGRFTINRDNAKNTVYLQMNSLKPEDTAVYYCAVRVETIYYYSYWGQGTQVTVSS | high polyreactivity
4 | QVQLVESGGGLVQAGGSLRLSCAASGFTFYLYTMGWYRQAPGKERELVAAINYSGGRTYYADSVKGRFTISRDNAKNTVYLQMNSLKPEDTAVYYCYPRVKNLQAYDYWGQGTQVTVSS | high polyreactivity
5 | QVLLVESGGGLVQAGGSLRLSCAASGSILRTYAMGWYRQAPGKERELVAAITWSGGSTRYADSVKGRFTISRDNAKNTVYLQMNSLKPEDTAVYYCNARYRVYSYALYKYGYWGQGTQVTVSS | high polyreactivity
6 | QVQLVESGGGLVQAGGSLRLSCGGSGSTFYVNAMGWYRQAPGKEREFVAAITWNSGSTYYADSVKGRFTISRDNAKNTVYLQMHSLKPEDTAVYYCAAVLSVRVYGYDYWGQGTQVTVSS | low polyreactivity
7 | QVQLVESGGGLVQAGGILRLSCAASGRIFHWYAMGWYRQAPGKERELVDAITDGYSTYYADSVNGRYKISRDNAKNTVYLQMNSLKPEETAVYYCAADVGYSPYVFGVTRYYKYDYWGQGTQVTVSS | low polyreactivity
8 | QVQLVESGGGLVQAGGSLRLSCAASGSTFHQNTMGWYRQAPVKEREMVAAISWTGGGTYYADSVKGRYTISRDNAKNTVYLQMNSLKPEDTAVYYCAADYSDFWGFRYYYWGQGTQVNVSS | low polyreactivity
9 | QVQLVESGGGLVQAGGSLRLSCAASGSTFSAKTIGGYRQAPGKEMELVAGITITGDTYYADSVKGRFTISRDNAKNTVYLQMNSLKPEDTAVYYCAAAWYEPATQTGYFEFDYWGQGTQVTVSS | low polyreactivity
10 | QVQHVESGGGLVQAGGSLRLSCAASGYNFPYNPMGWYRQATGKEREFVAASTSSGGSTYYADSVKGRFTISRDNAKNTVYLQMNSLKPEDTAVYYCARVPLHRYGYWGQGTQVNVSS | high polyreactivity
11 | QVQLVESGGGLVQAGGSLRLSCAASGSIFPWYAMGWYRQAPGKERELVAAITISGGSTHYADSEKGRFTISRDTAKNTVYLQLKSLKPEDTAVYYCAADFLPQSYNCYDYWGQGTQVTVSS | low polyreactivity
12 | QVQLVESGGGLVQAGGSLRLSCAASGRTFGYYAMGWYRQAPGKERELVAAIRSTGSTNYADSVKGRFTISRDNAKNTVYLQMNSLKPDDTAVYYCNADPWWRFDYWGQGTQVTVSS | low polyreactivity
13 | QVQLVESGGGLVQAGGSLRLSCAASGSTFRYYTMGWYRQAPGKERELVAAISWSGGITYYADSVKGRFTISRDNAKNTVYLQMNSLKPEDTAVYYCAADWWAWRAYYYWGQGTQVTVSS | high polyreactivity
14 | QVQLVESGGGLVQAGGSLRLSCAASGSIFGLYAMGWYRQAPGKERELVAAINQSGGSTSYADSVKGRFTISRDNAKNTVYLQMNSLKPEDTAVYYCAAKRSWGATRRAYGRYDYWGQGTQVTVSS | low polyreactivity
15 | QVQLVESAGGLVQAGGSLRLSCAASGFIFPRYAMGWYRPAPGKERELVAAISSSGGSTYYADSVKGRFTISRDNAKNTVYLQMNSLKPEDTAVYYCAARYQSDYWRYYYWGQGTQVTVSS | high polyreactivity
16 | QVQLVESGGGLVQAGGSLSLSCAASGSIFTHNAMGWYRQAPGKERELVAAISSGGSTNYADSVKGRFTISRDNAKNTVYLQMNSLKPEDTAVYYCAAGTQWYSQVYIYYYGGQGTQVTVSS | low polyreactivity

Row | Sequence | polyreactivity (PSR sort gate)
17 | QEQLQESGGGQVQDGGSLRMSCAASGSISYASGLCWYSQEQGKEREFVASIDPGAITNYADSVKGRFTISHDNAKNTVYLQMNRLKPEDTAVYYCAADGHGGYGYWGQGTQVTVSS | high polyreactivity
18 | QVQLVESGGGLVQAGGSHRLSCAASGRTFRQYAMGWYRQAPGKERELVATISSGGSTYYADSVKGRFTISRDNAKNTVYLQMNSLKPEDTAVYYCAAPYWARKYWRKFGPFDYWGQGTQVTVSS | low polyreactivity
19 | QVQIVESGGGLVQAGGSLRLSCAASGITLSYNAMGWYRPATEKDRELVAGISYSGGRTYYADSVKGRFTISRDNAKNTVYLQMYSLKPEVTAVYYCATDLYISFRYGGYFWGQGTQVTVSS | high polyreactivity
20 | QVQLVESGGGLVQAGGSLRLSCAASGSTFFRNAMGWYRQAPGKDRELVAAISSSGGRTYYADSVKGRFTISRDNAKNTVYLQMNSLKPVETAVYYCAVVSSHYKGPGRNGYDYWAQGTQVTVSS | high polyreactivity
21 | QVQLVESGGGLVQAGGSLRLICAASGTISSLNTMGWYRQAPVKERELVASITWSGGSTYADSVKGRFTISRDNAKNTVYLQMNSLKPEDTAVYYCAKGVWFSRRRYGYWGQGTQVTVSS | high polyreactivity
22 | QVQLVESGGVLVQAGGSLRVSCAASGGIFPRYTMGWSRQAPGKERELVASITRSGASTYYADSVKGRFTISRDKAKNTVYLPINSQKPEDTWFYYVISDVYVYSVTSHYTSSRLDYWGQGTQVTVSS | high polyreactivity
23 | QVQLVESGGGLVQAGGSLRLSCAASGFTFKRYAMGWYRQAPGKERELVAAISWSGGSTYYADSVKGRFTISRDNAKNTVYLQMNSLKPEDTAVYYCAADGGSTEEYYYWGQGTQVTVSS | high polyreactivity
24 | QVQLVESGGGLVQAGGSLRLSCAPSGLTIVTYAMGWYRQAPRKERELVAAISRSGGSTYYADSVKGRFTISRDNAKNTVYLQMNSLKPEDSAVYYCNAYSYVDLWAVYRYDYWGQGTQVTVSS | high polyreactivity
25 | QVQLVESGGGLVQAGGSLRLSCADSGSTFEANAMGWYRQAPGKERELVAAISSGGRTYYADSEKGRFTISRDNAKNTVYLKRNSLKPEDTAVYYCAAYVRRGFDWGQGTQVTVSS | high polyreactivity
26 | QVQLVESGGGLVQAGGSLRLSCAASGGTFFSYTKGWYRQAPGKERELVAAITWSGASTYYADSVKGRFTISRDNAKNTVYIQMNSLKPEDTAVYYCAADSYDSPGYLTTSTYRLDYWGQGTHVTVSS | low polyreactivity
27 | QVQLVDSGGGLVQARGSLRLTCAASGRIYNLYAMGWYRQAPGKERELVAAIRGRGTSTYYADSVKVRFTISRDKAKNTVYFQMNSLKPEDTAVYYCASEGGYGPTLQDTSRYEYWGQGTQVTVSS | low polyreactivity
28 | QVQLVESGGGLVQAGGSLRLSCAASGSIFVYYAMGWYRQAPGKERELVATINYNDGSTYYADSVKGRFTISRDNAKNTVYLQMNSLKPEDTAVYYCAADIVWSPESHPWYYVHYYYWGQGTQVTVSS | low polyreactivity
29 | QVQLVESGGGLVQAGGSLRLRCAASGRIQPGNAMGWYRQATGKERELVAAISSGGRTNYADSVKGRFTISRDIAKITVYLQMNSLKPEDTAVYYCAKRTVWWSIWHYYPPTYNYWGQGTQVTVSS | high polyreactivity
30 | QVQLVESGGGLVQAGGSLRLSCAASGSIFYGYAMGWYRQAPGKERELVAAITTSGGSTYYADSVKGRFTISRDNAKYTVYLQMNSLKPEDTAVYYCAAVTYWPGGYYWGQGTQVTVSS | high polyreactivity
31 | QVQLVESGGGIVQAGGSLRLTCAASGRIFPTYAMGWYRQAPGKEREMVATINGDGGSTYYAYSVKGRFTISRDNPKNTVYLHMNSLKPEDTSVDYCAKSYPFAAEYDYWGQGSQVTVSS | low polyreactivity
